Experimental findings from paper PMC2757159 are described below.

Experiment [1] deals with human copper chaperone for SOD1 (human). As to the kind of experiment: native gel or EMSA.
Experiment [2] deals with yeast copper chaperone for SOD1 (yeast). As to the kind of experiment: native gel or EMSA. For orientation: Mobility shift assays separate free from complexed probe on a gel.
Experiment [3] addresses human copper chaperone for SOD1 (human). In words: SEC. (SEC sorts molecules by how far they enter the pores of the column.)
Experiment [4] shares this target. In words: SEC. The source holds these as a separate data set.

As a reminder, the stoichiometry N is the number of molecules, sites or subunits per partner or assembly.

In the case of “human H46R/H48Q copper-zinc superoxide dismutase (SOD1) double mutant (from UniProt P00441 1-154) (enzyme)”, the stoichiometry N in experiment [1] and in experiment [2] was 1 SOD1:CCS in each case.
Regarding “human copper chaperone for SOD1 (natural protein)”, the stoichiometry N in experiment [3] and in experiment [4] was 4 in each case.
